The supplement of paper PMC12338614
± gives the uncertainty stated by the source.

B1: library; numbered along this chain (parent)
chain: MEVVDPQQLGMFTEGELMSVGMDTFIHRIDSTEVIYQPRRKRAKLIGKYLMGDLLGEGSYGKVKEVLDSETLCRRAVKILKKKKLRRIPNGEANVKKEIQLLRRLRHKNVIQLVDVLYNEEKQKMYMVMEYCVCGMQEMLDSVPEKRFPVCQAHGYFCQLIDGLEYLHSQGIVHKDIKPGNLLLTTGGTLKISDLGVAEALHPFAADDTCRTSQGSPAFQPPEIANGLDTFSGFKVDIWSAGVTLYNITTGLYPFEGDNIYKLFENIGKGSYAIPGDCGPPLSDLLKGMLEYEPAKRFSIRQIRQHSWFRKKHPPAEAPVPIPPSPDTKDRWRSMTVVPYLEDLHGADEDEDLFDIEDDIIYTQDFTVPGQVPEEEASHNGQRRGLPKAVCMNGTEAAQLSTKSRAEGRAPNPARKACSASSKIRRLSACKQQ

Variants of: B1
Test: STK11 functional score (HeLa growth suppression), rescaled enrichment; synonymous median = 1, nonsense median = 0 (normalised score)
Conditions: with HeLa; variant type: missense
Method in brief: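 The values are functional scores: wild-type-corrected log ratios of post- versus pre-selection abundance, rescaled to synonymous and nonsense medians, merged over codons and replicate transfections, and carrying bootstrapped error. They derive from codon-randomised (POPCode), codon-optimised STK11 libraries that Bxb1 integrated at an AAVS1 landing pad in HeLa, with three transfections for each of three regions. Sequencing of tiled gDNA amplicons ran on NextSeq, at ~2 million reads per tile.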

Compared with C132V, G15C is higher in STK11 functional score: 0.601 ± 0.22 for the first, 1.15 ± 0.21 for the second.

Compared with H313S, L54R is lower in STK11 functional score: 1.17 ± 0.15 for the first, 0.812 ± 0.087 for the second.

I224M and T336A are within error of each other in STK11 functional score: 1.11 ± 0.48 for the first, 1.52 ± 0.23 for the second.

Going from K262E to R75N, the STK11 functional score falls from 1.31 ± 0.85 to -0.061 ± 0.19.

Going from Q371V to Q159G, the STK11 functional score falls from 1.49 ± 0.2 to 1.1 ± 0.15.

M11L and S422W are within error of each other in STK11 functional score: 1.52 ± 0.23 for the first, 1.4 ± 0.15 for the second.

Compared with P373H, Y292C is lower in STK11 functional score: 1.49 ± 0.37 for the first, 0.438 ± 0.15 for the second.

A417M and D365R are within error of each other in STK11 functional score: 1.47 ± 0.12 for the first, 1.61 ± 0.14 for the second.

G279T and A420V are within error of each other in STK11 functional score: 1.57 ± 0.21 for the first, 1.52 ± 0.21 for the second.

T209Q and D229E are within error of each other in STK11 functional score: 1.5 ± 0.5 for the first, 1.03 ± 0.51 for the second.

First: A389S
Second: N109Q
The STK11 functional score of the first is higher: 1.38 ± 0.32 for the first, 0.886 ± 0.081 for the second.

E70V and N247S are within error of each other in STK11 functional score: 1.28 ± 0.39 for the first, 1.3 ± 0.2 for the second.

Compared with L282R, P314F is higher in STK11 functional score: 0.128 ± 0.1 for the first, 1.18 ± 0.26 for the second.

Compared with V338G, G61V is lower in STK11 functional score: 1.18 ± 0.3 for the first, 0.688 ± 0.096 for the second.

First: S271R
Second: K431L
The STK11 functional score of the first is lower: 1.04 ± 0.27 for the first, 1.6 ± 0.23 for the second.

Compared with V337Y, V110E is lower in STK11 functional score: 0.9 ± 0.57 for the first, -0.206 ± 0.081 for the second.

Compared with Y261I, P144V is lower in STK11 functional score: 1.62 ± 0.16 for the first, 0.879 ± 0.22 for the second.

First: Y166P
Second: R106Y
The STK11 functional score of the first is lower: 0.994 ± 0.26 for the first, 1.64 ± 0.16 for the second.

E265A and F204L are within error of each other in STK11 functional score: 1.3 ± 0.53 for the first, 1.17 ± 0.4 for the second.

Going from T402F to D284P, the STK11 functional score falls from 1.18 ± 0.12 to 0.0198 ± 0.1.

L85P and N226W are within error of each other in STK11 functional score: 1.41 ± 0.18 for the first, 1.65 ± 0.24 for the second.

L102M and A198Y are within error of each other in STK11 functional score: 0.857 ± 0.19 for the first, 1.04 ± 0.51 for the second.

I360Y and F231D are within error of each other in STK11 functional score: 1.52 ± 0.2 for the first, 1.56 ± 0.39 for the second.

Going from N109I to A429L, the STK11 functional score rises from 0.256 ± 0.084 to 1.48 ± 0.15.

E256F and S334I are within error of each other in STK11 functional score: 0.982 ± 0.22 for the first, 0.935 ± 0.59 for the second.

H313M and V66S are within error of each other in STK11 functional score: 1.25 ± 0.59 for the first, 0.975 ± 0.13 for the second.

V320W and E98L are within error of each other in STK11 functional score: 0.717 ± 0.091 for the first, 0.433 ± 0.22 for the second.

Going from M129W to S421L, the STK11 functional score rises from 0.743 ± 0.079 to 1.62 ± 0.27.

Compared with V4S, P339W is higher in STK11 functional score: 0.996 ± 0.14 for the first, 1.6 ± 0.17 for the second.

Q152V and V66I are within error of each other in STK11 functional score: 1.19 ± 0.27 for the first, 0.557 ± 1.1 for the second.

L9W and Q371I are within error of each other in STK11 functional score: 1.49 ± 0.16 for the first, 1.52 ± 0.3 for the second.

I424S and K388G are within error of each other in STK11 functional score: 1.37 ± 0.2 for the first, 1.31 ± 0.29 for the second.

V320F and P89V are within error of each other in STK11 functional score: 1.07 ± 0.37 for the first, 0.683 ± 0.088 for the second.

C73T and G370R are within error of each other in STK11 functional score: 1.6 ± 0.45 for the first, 1.16 ± 0.47 for the second.

Going from E349I to L184G, the STK11 functional score falls from 1.05 ± 0.55 to 0.204 ± 0.079.

K81Y and M392Y are within error of each other in STK11 functional score: 1.29 ± 0.37 for the first, 1.04 ± 0.61 for the second.

S334W and D277S are within error of each other in STK11 functional score: 0.649 ± 0.082 for the first, 0.886 ± 0.28 for the second.

Going from G163A to L263I, the STK11 functional score rises from 1.05 ± 0.2 to 1.57 ± 0.28.

V20H and R106T are within error of each other in STK11 functional score: 1.44 ± 0.17 for the first, 1.69 ± 0.18 for the second.

Going from T71S to Y36D, the STK11 functional score rises from 0.618 ± 0.24 to 1.27 ± 0.22.

First: R75Y
Second: L228M
The STK11 functional score of the first is higher: 1.5 ± 0.23 for the first, 0.601 ± 0.32 for the second.

G227C and V173S are within error of each other in STK11 functional score: 0.981 ± 0.31 for the first, 1.23 ± 0.4 for the second.
